Measurements published in publication PMC4794775.

Legend:
[1] = target: RopB-CTD R226A (Streptococcus pyogenes (group A Streptococcus) strain MGAS10870); assay: SEC
[2] = target: RopB-CTD Y224A (Streptococcus pyogenes (group A Streptococcus) strain MGAS10870); assay: SEC
[3] = target: RopB-CTD C222A (Streptococcus pyogenes (group A Streptococcus) strain MGAS10870); assay: SEC
[4] = target: RopB C-terminal domain (RopB-CTD, amino acids 56-280), wild type (Streptococcus pyogenes (group A Streptococcus) strain MGAS10870); assay: SEC
[5] = target: RopB-CTD R226Q (Streptococcus pyogenes (group A Streptococcus) strain MGAS10870); assay: SEC
[6] = target: RopB-CTD Y224H (Streptococcus pyogenes (group A Streptococcus) strain MGAS10870); assay: SEC
[7] = target: RopB-CTD I255A (Streptococcus pyogenes (group A Streptococcus) strain MGAS10870); assay: SEC
[8] = target: RopB-CTD C227Y (Streptococcus pyogenes (group A Streptococcus) strain MGAS10870); assay: SEC
[9] = target: full-length RopB (Streptococcus pyogenes (group A Streptococcus) strain MGAS10870)

RopB-CTD R226A (domain or fragment) was tested, and the stoichiometry N [1] was 2.

Work on RopB-CTD Y224A (domain or fragment) yielded a stoichiometry N [2] of 2.

RopB-CTD C222A (domain or fragment) was tested, and the stoichiometry N [3] was 2.

“RopB C-terminal domain (RopB-CTD, amino acids 56-280), wild type (domain or fragment)” showed a stoichiometry N [4] of 2.

For RopB-CTD R226Q (domain or fragment), the stoichiometry N [5] was 2.

RopB-CTD Y224H (domain or fragment) gave a stoichiometry N [6] of 2.

RopB-CTD I255A (domain or fragment) gave a stoichiometry N [7] of 2.

RopB-CTD C227Y (domain or fragment) was tested, and the stoichiometry N [8] was 2.

In the case of full-length RopB (natural protein), the stoichiometry N [9] was > 6.
